# According to patent CN111690063A (UNIV BEIJING, dated 2020):
# Legend:
# 粒细胞-巨噬细胞集落刺激因子 (human …) [1] = biological target: T1, 粒细胞-巨噬细胞集落刺激因子 (human granulocyte-macrophage colony-stimulating factor, GM-CSF) (human, UniProt P04141 18-144); assay: Biolayer interferometry type assay: GM-CSF loaded on SA sensor, nanobody at 1000, 500 and 250 nmol, 30℃
# T1 construct: also called GM-CSF蛋白
# 粒细胞-巨噬细胞集落刺激因子 (human …) [2] = biological target: T1, 粒细胞-巨噬细胞集落刺激因子 (human …); assay: Not stated at this place (summary of advantages); conflicts with the value in Example 4
# T1 sequence (P04141 18-144 limits assumed): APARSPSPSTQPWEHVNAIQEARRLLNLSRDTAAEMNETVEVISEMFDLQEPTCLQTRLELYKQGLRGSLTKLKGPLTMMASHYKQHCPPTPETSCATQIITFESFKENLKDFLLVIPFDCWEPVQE
binder,measurement,setting,value
"抗GM-CSF纳米抗体G1 (VHH, Alpaca VHH picked from an immune phage library) VHH: QLQLVESGGGLVQAGGSLRLSCAVSGRPSNVYDMGWFRRVPGKESRLMAYINWSRGSTYYADSVKGRFTISRDNTNNTVYLQMNSLKPEDTAVYYCAARAGPGTPAYNSWGQGTQVTVSS",Kd,粒细胞-巨噬细胞集落刺激因子 (human …) [1],93.7 nM
same,Kd,粒细胞-巨噬细胞集落刺激因子 (human …) [2],29.5 nM
